Reference: paper PMC6917717, “YtfK activates the stringent response by triggering the alarmone synthetase SpoT in Escherichia coli” (Nature Communications, 2019)

Molecular target: T1, SpoT catalytic domains (SpoT^1-378) (E. coli, UniProt P0AG24 1-378)
T1 construct: SpoT, E. coli, residues 1-378 (catalytic domains: hydrolase and synthetase); no cleavage is described; also called SpoT^1–378-6His; recombinant SpoT^1–378
Test: BLI; biotinylated YtfK (2.5 µM) on streptavidin biosensors; SpoT1-378 (5-80 µM) or RelA1-396 (40-120 µM) as analyte; BLItz, 25 °C; 50 mM Tris-HCl pH 8.0, 500 mM NaCl, 500 mM KCl, 2 mM β-mercaptoethanol, glycerol 2%, BSA 1 mg/ml; KD estimated from responses 10 s before the end of association, one-site fit
Details: both partners purified

T1 sequence (P0AG24 1-378): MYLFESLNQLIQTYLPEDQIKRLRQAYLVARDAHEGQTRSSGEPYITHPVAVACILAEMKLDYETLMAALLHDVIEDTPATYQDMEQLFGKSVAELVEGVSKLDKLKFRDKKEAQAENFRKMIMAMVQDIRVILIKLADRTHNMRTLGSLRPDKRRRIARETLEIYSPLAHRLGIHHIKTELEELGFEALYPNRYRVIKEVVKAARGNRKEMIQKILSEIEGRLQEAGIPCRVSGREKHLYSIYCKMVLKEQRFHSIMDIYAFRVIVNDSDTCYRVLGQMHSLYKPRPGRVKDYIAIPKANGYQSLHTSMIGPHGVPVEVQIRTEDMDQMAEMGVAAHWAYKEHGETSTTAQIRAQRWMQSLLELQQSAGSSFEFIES

B1: YtfK, purified, biotinylated (natural protein)
chain: not shown
modifications: biotin (EZ-Link NHS-PEG4-Biotin, 1:1 ratio of YtfK and biotin)
notes: YtfK, E. coli; ytfK gene amplified from E. coli chromosomal DNA and cloned in pET28a+-TRX (thioredoxin-6his-tev); the TRX-6His-TEV cassette (NcoI/BamHI) lies upstream of ytfK (BamHI/HindIII), so residues from the TEV site and cloning site may remain at the N-terminus; also called Untagged YtfK; biotinylated YtfK
How did the Kd turn out when B1 was run?
The Kd was 35 µM.
